B1: recombinant protein CN-P2S2-DN (designed binder)
chain: EVQLMESGGGLVQAGGSLRLSCAASGRTFNNYAMGWFRRAPKGEREFVAAITRSGVRSGVSAIYGDSVKDRFTISRDNAKNTLYLQMNSLKPEDTAVYTCAASAIGSGALRRFEYDYSGQGTQVTVSSGGSGGSGGSGGSASMKGGSWGGSKKTPPPVPPRTTSKGGSGGSGGSGGSKKTPPPVPPRTTSKGGSGGSGGSGGSDLNMPAYVKFNYMAEREDELSLIKGTKVIVMEKSSDGWWRGSYNGQVGWFPSNYVTEEGDSPLASGAGGSEGGGSEGGTSGATDLNMPAYVKFNYMAEREDELSLIKGTKVIVMEKSSDGWWRGSYNGQVGWFPSNYVTEEGDSPLGSMGMGEVQLLESGGGLVQPGGSLRLSCAASGTFDKINNMGWYRQAPGKQRDLVAQITPGGITDYADSVKGRFTISRDNSKNTLYLQMNSLRPEDTAVYYCNAEILKRAYIDVYVNYWGQGTLVTVSS
modifications: fluorescent dye label by Alexa Fluor C5 maleimide (Alexa 647, Alexa 561 or Alexa 546 in the imaging experiments); labelled residue not stated
notes: MBP removed by TEV protease; Unlabelled, endotoxin-free protein was used in the apoptosis assays; also called synthetic ligand CN-P2S2-DN; recombinant ligand CN-P2S2-DN
B2: truncated variant P2S2 (other)
chain: MKGGSWGGSKKTPPPVPPRTTSKGGSGGSGGSGGSKKTPPPVPPRTTSKGGSGGSGGSGGSDLNMPAYVKFNYMAEREDELSLIKGTKVIVMEKSSDGWWRGSYNGQVGWFPSNYVTEEGDSPLASGAGGSEGGGSEGGTSGATDLNMPAYVKFNYMAEREDELSLIKGTKVIVMEKSSDGWWRGSYNGQVGWFPSNYVTEEGDSPLG
modifications: fluorescent dye label by Alexa Fluor C5 maleimide; labelled residue not stated

How the values were obtained:
[1] = molecular target: T1, endogenous CXCR4 receptor on human tumor cells (human, UniProt P61073 1-352); assay: FRAP and confocal imaging on SJSA-1 cells, 200 nM
T1 construct: whole, on cells; also called CXC motif chemokine receptor 4
Description: Fluorescence recovery after photobleaching (FRAP) is an experiment commonly used to verify liquid-liquid phase separation, see, for example, Alberti, Simon et al., Journal of Molecular Biology 430(23): 4806-4820, 2018: McSwiggen, David T et al., Genes & Development 33(23-24): 1619-1634, 2019. Therefore, FRAP was performed on the same droplets as in Example 4 that contain 12.5 μM CN-P2S2-DN protein. After bleaching with 488 nm laser light at a laser intensity of 50% for 1 second, fluorescence images were taken under a NIKON A1R HD25 laser confocal microscope (purchased from Nikon, Inc.) with a 100× oil immersion objective lens. The images were analyzed and exported using NIS-Elements AR Analysis (Nikon, Inc.) and Image J (National Institutes of Health) software.
SJSA-1 cells were treated with 200 nM CN-P2S2-DN (labeled with Alexa 561) for 4 hrs in the same manner as in Example 5, and photobleaching analysis was performed.

[2] = molecular target: endogenous DR5 receptor on human tumor cells (human, UniProt O14763 56-440); assay: cell-based or functional assay
[3] = molecular target: T2, DR5-GFP; assay: time-lapse confocal imaging, HEK293T cells co-expressing CXCR4-mCherry and DR5-GFP, 200 nM
T2 construct: Co-expressed with CXCR4-mCherry on transfected HEK293T cells; also called exogenous DR5; DR5 fused with a GFP tag at the C-terminal

[4] = molecular target: T3, CXCR4-mCherry; assay: as above
T3 construct: Co-expressed with DR5-GFP on transfected HEK293T cells; also called exogenous CXCR4; CXCR4 fused with an mCherry tag at the C-terminal

[5] = molecular target: T2, DR5-GFP; assay: live-cell confocal colocalisation, HEK293T cells co-expressing CXCR4-mCherry and DR5-GFP
Description: (§1) HEK293T cells were seeded at a density of 5×10⁵ cells/well into a 4-well chamber 35 mm culture dish (purchased from In Vitro Scientific) and cultured at 37° C., 5% CO₂ until the cell density reached approximately 60-70% confluence. Then, plasmids pCDNA3.1-CXCR4-mCherry and pCDNA3.1-DR5-GFP were gently pipetted and mixed with Opti-MEM Medium (purchased from Invitrogen. Inc.) without antibiotics and serum in a sterile centrifuge tube, in an amount of 0.5 μg pCDNA3.1-CXCR4-mCherry and 0.5 μg pCDNA3.1-DR5-GFP per well. Lipo8000™ transfection reagent (purchased from Shanghai Bio-Tech Biotechnology Co., Ltd.) was added and gently pipetted and mixed again to obtain a plasmid solution for transfection (i.e., each 100 μl Opti-MEM Medium contained 0.5 μg of plasmids pCDNA3.1-CXCR4-mCherry and pCDNA3.1-DR5-GFP, and 1.6 μl Lipo8000). The evenly mixed plasmid solution was added dropwise to each well, gently mixed, and then cultured for 24-36 hours at 37° C., and 5% CO₂ to obtain HEK293T cells co-expressing CXCR4-mCherry and DR5-GFP.
(§2) 200 nM CN-P2S2-DN protein or its different truncated variants P2S2-CN, P2S2. P2S2-DN (all labeled with fluorescent dye Alexa 647) were added to the above cell culture medium. HEK293T cells treated in the same manner with blank solution under the same conditions were used as negative controls. […]

[6] = molecular target: T3, CXCR4-mCherry; assay: as above
Description: as §1, §2

T3 sequence (chain, as listed by the source limits assumed): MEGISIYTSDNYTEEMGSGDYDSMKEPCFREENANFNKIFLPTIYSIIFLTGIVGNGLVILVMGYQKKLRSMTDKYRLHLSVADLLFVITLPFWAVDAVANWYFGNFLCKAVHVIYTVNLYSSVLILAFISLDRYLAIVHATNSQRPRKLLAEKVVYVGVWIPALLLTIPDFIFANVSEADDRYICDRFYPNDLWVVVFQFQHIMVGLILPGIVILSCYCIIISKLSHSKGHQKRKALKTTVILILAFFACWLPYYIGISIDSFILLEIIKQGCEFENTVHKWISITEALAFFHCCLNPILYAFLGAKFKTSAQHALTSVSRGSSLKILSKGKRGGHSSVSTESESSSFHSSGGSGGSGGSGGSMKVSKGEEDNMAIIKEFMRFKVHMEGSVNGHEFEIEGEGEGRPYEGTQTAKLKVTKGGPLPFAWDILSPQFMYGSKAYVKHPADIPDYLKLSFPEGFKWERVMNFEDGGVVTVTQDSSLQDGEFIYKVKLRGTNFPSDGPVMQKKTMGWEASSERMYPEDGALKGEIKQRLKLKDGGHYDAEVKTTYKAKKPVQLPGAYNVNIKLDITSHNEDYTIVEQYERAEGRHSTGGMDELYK
T1 sequence (P61073 whole entry): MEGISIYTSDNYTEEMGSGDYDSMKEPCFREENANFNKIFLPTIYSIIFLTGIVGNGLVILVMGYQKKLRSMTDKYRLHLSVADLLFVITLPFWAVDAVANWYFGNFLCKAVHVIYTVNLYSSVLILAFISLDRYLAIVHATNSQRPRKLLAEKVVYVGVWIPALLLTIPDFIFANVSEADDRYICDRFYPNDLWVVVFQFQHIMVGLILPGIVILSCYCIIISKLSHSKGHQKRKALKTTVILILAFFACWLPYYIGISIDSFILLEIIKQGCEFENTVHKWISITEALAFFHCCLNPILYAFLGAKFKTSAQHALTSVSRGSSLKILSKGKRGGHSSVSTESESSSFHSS

| Binder | binding result [1] | IC50 of apoptosis induction in CXCR4/DR5 COLO-205 cells (Annexin V-FITC/PI flow cytometry) [2] | IC50 of apoptosis induction in CXCR4/DR5 SJSA-1 cells (Annexin V-FITC/PI flow cytometry) [2] | apoptosis ratio in other CXCR4+/DR5+ double-positive tumor cell lines, 200 nM, 5 hr [2] | apoptosis ratio, COLO-205 cells, 100 nM, 3 hr [2] | apoptosis ratio, SJSA-1 tumor cells, 100 nM, 3 hr [2] | binding result [3] | binding result [4] | binding result [5] | binding result [6] |
| --- | --- | --- | --- | --- | --- | --- | --- | --- | --- | --- |
| B1 | binds | 28.9 nM | 10.1 nM | > 40% | 74% | 82.5% | binds | binds | – | – |
| B2 | – | – | – | – | – | – | – | – | no binding (tested: 200 nM) | no binding (tested: 200 nM) |
